The target in assay [1] is truncated pre-β-lactamase (E.coli) (UniProt P62593).
The target of assay [2] is wild-type TEM pre-β-lactamase (E.coli) (UniProt P62593).
The target of assay [3] is pre(A13i)-β-lactamase (B. subtilis; E. coli) (UniProt P62593).
Assay [4] deals with pre(A42)-β-lactamase (E. coli) (UniProt P62593).
Assay [5] deals with pre(A2)-β-lactamase (E. coli) (UniProt P62593).
The target in assay [6] is pre(A2d)-β-lactamase (E. coli) (UniProt P62593).
Assay [7] has as its target pre(A13i)-β-lactamase (B. subtilis; E. coli) (UniProt P62593). The note with it: scale: % of all the.
The subject of assay [8] is E. coli cells containing pSPB plasmids (beta-lactamase with the indicated signal peptide). Kind of assay: Ampicillin resistance in E. coli carrying pSPB plasmids (colony formation). The class given is cell-based. The source says: described in Materials and Methods. Resistance to ampicillin was defined
as the maximal concentration of the antibiotic at which 100% of the E.
coli cells could form colonies. Plasmids indicated by pSPA . . . contain
amylase with the indicated signal peptide, plasmids indicated by pSPB . .
. contain lactamase with the indicated signal peptide.

As to S.typhimurium SPase I (enzyme), the fraction unprocessed truncated (P') lactamase, pulse-chase labeling, samples 15 s after the chase in assay [1] is 60%. The fraction unprocessed wildtype (P) lactamase, pulse-chase labeling, samples 15 s after the chase in assay [2] stood at 16%.
B. subtilis SPase I (enzyme): the t50, time necessary to obtain equal amounts of the precursor and the mature forms, pulse-chase labeling in B. subtilis DB104 in assay [3] is 6 min.
Turning to “E.coli SPase I (signal peptidase I) (from UniProt P00803) (enzyme)”, the t50, time necessary to process 50% of the precursor, pulse-chase labeling in E.coli C600 in assay [4] was 15 min; in assay [5], 2.2 min; in assay [6] it was below 1 min. The molecule further came in with a relative amount of mature enzyme, pulse-chase labeling in E.coli C600 in assay [7] of 6 to 7. In assay [1], the fraction unprocessed truncated (P') lactamase, pulse-chase labeling, samples 15 s after the chase is 63%. The molecule also had a fraction unprocessed wildtype (P) lactamase, pulse-chase labeling, samples 15 s after the chase in assay [2] of 15%.
With `CC1(C)S[C@@H]2[C@H](NC(=O)[C@H](N)c3ccccc3)C(=O)N2[C@H]1C(=O)O` [ampicillin], the “E. coli amp. resist. (maximal concentration of the antibiotic at which 100% of the E. coli cells could form colonies)” value in assay [8] (E. coli containing pSPB-A2) was determined as 300 µg/mL; in assay [8] (E. coli containing pSPB-A13) it was 300 µg/mL; in assay [8] (E. coli containing pSPB-A13i) it was 100 µg/mL; in assay [8] (E. coli containing pSPB-A42), 20 µg/mL; in assay [8] (E. coli containing pSPB-A2d), 500 µg/mL; in assay [8] (E. coli containing pSPB-A42d), 100 µg/mL.
